# Results reported in article PMC7761795 (Biochemistry, 2020).
# B1: UBE2D1 (enzyme)
# chain: not shown
# B2: UBE2E1 (enzyme, human, UniProt P51965 1-193, looked up)
# chain: MSDDDSRASTSSSSSSSSNQQTEKETNTPKKKESKVSMSKNSKLLSTSAKRIQKELADITLDPPPNCSAGPKGDNIYEWRSTILGPPGSVYEGGVFFLDITFTPEYPFKPPKVTFRTRIYHCNINSQGVICLDILKDNWSPALTISKVLLSICSLLTDCNPADPLVGSIATQYMTNRAEHDRMARQWTKRYAT
# B3: UBE2N (enzyme, human, UniProt P61088 1-152, looked up)
# chain: MAGLPRRIIKETQRLLAEPVPGIKAEPDESNARYFHVVIAGPQDSPFEGGTFKLELFLPEEYPMAAPKVRFMTKIYHPNVDKLGRICLDILKDKWSPALQIRTVLLSIQALLSAPNPDDPLANDVAEQWKTNEAQAIETARAWTRLYAMNNI
# Tests used:
# OTUB1 (C91S) = OTUB1 (C91S) (human (by the printed UniProt accession), UniProt Q96FW1 1-271, C91S); assay: ITC
# Sequence of OTUB1 (C91S) (Q96FW1 whole entry C91S): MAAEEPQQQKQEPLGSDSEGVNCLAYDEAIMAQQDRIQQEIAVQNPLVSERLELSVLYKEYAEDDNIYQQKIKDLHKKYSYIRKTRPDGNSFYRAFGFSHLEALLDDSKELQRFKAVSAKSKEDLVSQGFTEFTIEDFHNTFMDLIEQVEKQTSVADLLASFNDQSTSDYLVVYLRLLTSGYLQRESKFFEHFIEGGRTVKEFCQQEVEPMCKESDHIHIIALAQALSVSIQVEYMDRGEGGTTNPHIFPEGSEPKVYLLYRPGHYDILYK
# OTUB1 wild-type = OTUB1 wild-type (human (by the printed UniProt accession), UniProt Q96FW1 1-271); assay: ITC
# Sequence of OTUB1 wild-type (Q96FW1 whole entry): as the sequence (Q96FW1 whole entry C91S) above, with S91C counted along it
Binder,binding result (OTUB1 (C91S)),binding result (OTUB1 wild-type),Kd (OTUB1 (C91S))
B1,binds,binds,
B2,binds,,
B3,,,8.1 µM
